According to patent US20230340071A1 (published 2023):

Key:
mouse IL-2 beta receptor [1] = biological target: T1, mouse IL-2 beta receptor (mouse, UniProt P16297 27-240); assay: BLI competition: mIL2RG on sensor, dilutions of P4 + 20 nM Neo-2/15; competitor Neo-2/15; read-out binding to mIL2RBG
T1 construct: also called mIL2RB; beta part of mIL2RBG
T1 sequence (looked up): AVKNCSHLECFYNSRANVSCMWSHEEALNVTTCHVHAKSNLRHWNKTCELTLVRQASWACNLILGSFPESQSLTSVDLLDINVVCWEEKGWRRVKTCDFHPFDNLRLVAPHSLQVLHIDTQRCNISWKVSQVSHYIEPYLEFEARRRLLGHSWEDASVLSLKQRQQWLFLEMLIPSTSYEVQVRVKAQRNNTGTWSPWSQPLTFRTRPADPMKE
Protocol: (§1) All samples were prepared using HBS-EP+buffer from GE Healthcare, which contains 10 mM HEPES, 150 mM NaCl, 3 mM EDTA and 0.05% v/v surfactant P20, pH 7.4. Data were acquired at 30° C. using an Octet RED96e system (ForteBio) and processed using the instrument's integrated software. IC50 values were estimated from response vs antagonist concentration plots.

Biotinylated hIL2RB = biological target: T2, Biotinylated hIL2RB (UniProt P14784 27-240, biotinylated (site not stated)); assay: BLI
T2 chain: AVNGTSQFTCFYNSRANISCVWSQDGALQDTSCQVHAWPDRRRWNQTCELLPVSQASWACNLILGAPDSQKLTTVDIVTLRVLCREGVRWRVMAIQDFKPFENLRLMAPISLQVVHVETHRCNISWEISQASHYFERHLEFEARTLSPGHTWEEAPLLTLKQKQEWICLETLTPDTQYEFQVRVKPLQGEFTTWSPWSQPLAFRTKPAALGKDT

hIL2RG-fc chimera = biological target: T3, hIL2RG-fc chimera (human, UniProt P31785 23-262); assay: BLI (Octet RED96e), hIL2RG-fc on anti-human IgG Fc sensors, 200 nM P4 + 200 nM hIL2RB-fc
T3 construct: also called hIL2G; hIL2 receptor gamma; not shown: Fc part of the bought chimera (captured on anti-human IgG Fc biosensors)
T3 sequence: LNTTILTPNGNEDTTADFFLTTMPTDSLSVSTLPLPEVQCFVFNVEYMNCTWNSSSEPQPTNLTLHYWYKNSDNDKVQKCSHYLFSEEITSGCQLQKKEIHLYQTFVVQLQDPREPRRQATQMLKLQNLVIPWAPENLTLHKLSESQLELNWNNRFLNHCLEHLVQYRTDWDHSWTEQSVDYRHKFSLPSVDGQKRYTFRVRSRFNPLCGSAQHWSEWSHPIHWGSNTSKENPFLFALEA
Protocol: All samples were prepared using HBS-EP+ buffer from GE Healthcare, which contains 10 mM HEPES, 150 mM NaCl, 3 mM EDTA and 0.05% v/v surfactant P20, pH 7.4. Data were acquired at 30° C. using an Octet RED96e system (ForteBio) and processed using the instrument's integrated software.

Biotinylated hIL2RG = biological target: T4, Biotinylated hIL2RG (human, UniProt P31785 23-262, limits assumed, biotinylated (site not stated)); assay: BLI (Octet RED96), biotinylated hIL2RG on streptavidin sensors, 200 nM protein + 200 nM hIL2RB
T4 construct: also called human common gamma receptor (hIL2RG); hIL-2Rγc
T4 sequence: T3 sequence
Protocol: Biotinylated hIL2RG molecules were immobilized to Streptavidin sensors (SA, ForteBio) at 2 μg/mL in binding buffer (10 mM HEPES, pH 7.4, 150 mM NaCl, 3 mM EDTA, 0.05% surfactant P20, 0.5% non-fat dry milk). After baseline measurement in the binding buffer alone, the binding kinetics were monitored by dipping the biosensors in wells containing 200 nM of protein and 200 nM of hIL2RB for 300 sec. Data were collected in an Octet RED96 (ForteBio) and processed using the instrument's integrated software.

hIL2RB-fc chimera [2] = biological target: T5, hIL2RB-fc chimera (human, UniProt P14784 27-240); assay: BLI (Octet RED96e), hIL2RB-fc (Symansis) on anti-human IgG Fc sensors
T5 construct: also called hIL2 receptor beta; hIL-2Rβ; not shown: Fc part of the bought chimera (captured on anti-human IgG Fc biosensors)
T5 sequence: T2 chain
Protocol: For this purpose, sensors were soaked in samples containing 20 nM of hIL2RB-fc chimera (Symansis) for 300 sec. […] Finally, sensors were removed from the protein samples and dipped in buffer solutions to promote and measure dissociation (1500 sec). The buffer used to prepare all the samples and soak the sensors was HBS-EP+from GE Healthcare, which contains 10 mM HEPES, 150 mM NaCl, 3 mM EDTA and 0.05% v/v surfactant P20, pH 7.4. Data were acquired at 30° C. using an Octet RED96e system (ForteBio) and processed using the instrument's integrated software. Kinetics were fitted to a 1:1 binding model after subtracting a buffer signal baseline and the Kd values were calculated.

[3] = biological target: T6, hIL-2RBG (biotinylated hIL2RG on the sensor with hIL2RB in solution) (UniProt P14784 27-240; P31785 23-262, biotinylated (site not stated)); assay: BLI competition, inhibition of hIL-2 binding
T6 chain 1: T2 chain
T6 chain 2: T3 sequence

[4] = biological target: T7, human IL-2 receptor (IL-2Rβγc) on cells (human, UniProt P14784 27-551; P31785 23-369); assay: cell-based or functional assay
T7 sequence 1: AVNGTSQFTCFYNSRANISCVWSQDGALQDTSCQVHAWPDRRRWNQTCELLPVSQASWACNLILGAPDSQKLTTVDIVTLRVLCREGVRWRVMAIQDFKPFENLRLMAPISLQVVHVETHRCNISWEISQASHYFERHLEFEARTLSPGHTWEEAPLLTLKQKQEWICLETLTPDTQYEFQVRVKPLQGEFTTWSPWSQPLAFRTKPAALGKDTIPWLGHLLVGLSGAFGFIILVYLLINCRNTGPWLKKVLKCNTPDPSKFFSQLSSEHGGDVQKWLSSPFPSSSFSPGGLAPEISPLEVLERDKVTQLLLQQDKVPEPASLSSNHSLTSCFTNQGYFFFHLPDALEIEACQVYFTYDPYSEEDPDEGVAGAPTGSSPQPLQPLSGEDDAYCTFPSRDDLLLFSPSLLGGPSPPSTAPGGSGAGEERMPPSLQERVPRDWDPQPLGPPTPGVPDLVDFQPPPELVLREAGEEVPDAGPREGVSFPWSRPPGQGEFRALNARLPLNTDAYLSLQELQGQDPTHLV
T7 sequence 2: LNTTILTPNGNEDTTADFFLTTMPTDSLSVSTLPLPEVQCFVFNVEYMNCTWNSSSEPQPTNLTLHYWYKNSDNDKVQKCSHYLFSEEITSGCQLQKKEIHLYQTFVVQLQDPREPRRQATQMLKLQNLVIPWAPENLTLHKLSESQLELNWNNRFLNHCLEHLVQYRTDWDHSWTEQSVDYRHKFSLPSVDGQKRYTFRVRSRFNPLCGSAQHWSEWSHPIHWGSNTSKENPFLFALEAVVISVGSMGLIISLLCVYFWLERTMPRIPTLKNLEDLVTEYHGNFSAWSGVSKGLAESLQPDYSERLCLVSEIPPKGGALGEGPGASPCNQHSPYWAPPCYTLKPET

hIL2RB-fc chimera [5] = biological target: T5, hIL2RB-fc chimera; assay: BLI competition: hIL2RG-fc on sensor, dilutions of P4 + 20 nM Neo-2/15 + 50 nM hIL2RB-fc; competitor Neo-2/15; read-out binding to hIL2RBG
Protocol: as §1

[6] = biological target: T7, human IL-2 receptor (IL-2Rβγc) on cells; assay: cell-based or functional assay; remark: listed apart in the source
mouse IL-2 beta receptor [7] = biological target: T1, mouse IL-2 beta receptor; assay: method not stated

B1: Protein 4 (P4) (designed binder)
chain: PKKKIQLYAEHALYDAEMILKIVKTNSPPAEEELEDYAFNFELILEEIARLFESGDQKDEAEKAKRMKEWMKRIKTTASEDEQEEMANRIRKILEEWIRS
notes: P2 with H8Y and K33E; N-terminal 6xHis tag and thrombin site in the expression vector; also called S4
IC50 (mouse IL-2 beta receptor [1]): 67.6 nM
Kd (Biotinylated hIL2RB): < 1 nM
binding result (hIL2RG-fc chimera): no binding (tested: 200 nM)
binding result (Biotinylated hIL2RG): no binding (tested: 200 nM)
Kd (hIL2RB-fc chimera [2]): 0.06 nM
IC50 [3]: 88 nM
Signaling Inhibition IC50 (1 nM hIL-2, pSTAT5, CD4+ T cells) [4]: 1.46 nM
Signaling Inhibition IC50 (1 nM hIL-2, pSTAT5, CD8+ T cells) [4]: 0.3 nM
Signaling Inhibition IC50 (1 nM hIL-2, pSTAT5, all T cells) [4]: 0.49 nM
IC50 (hIL2RB-fc chimera [5]): 0.9 nM
Binding Inhibition IC50 (inhibition of hIL-2 pSTAT5 signaling, human pan T cells, 0.1 nM hIL2) [6]: 0.1 nM
Binding Inhibition IC50 (inhibition of hIL-2 pSTAT5 signaling, human pan T cells, 1 nM hIL2) [6]: 0.45 nM
Binding Inhibition IC50 (inhibition of hIL-2 pSTAT5 signaling, human pan T cells, 10 nM hIL2) [6]: 3.3 nM
Kd (mouse IL-2 beta receptor [7]): 70.6 nM
